From a protein production outcome set (Wang et al. 2014)

Assay: label from the status in PepcDB records

## MNFVELAKKRYSCRNYQDRKVEKEKLEKVLDVARIAPTGGNRQPQRLIVIQEKEGINKLSKAANIYDAPLAILVCGDKDKVWTRPFDGKQLTDIDTSIVTDHMMLQATELGLASVWVCYFNPDIIREEFSLPDNLEPINILLMGYESKIPESPERHEKTRVPLSEIVSYETL
  protein production: failed

## MKISVIISNYNYARYLSRAINSVLAQTHSDIEIVIVDDGSTDNSRDVITQLQEQAPDKIKPIFQANQGQGGAFNAGFAAATGEVVAFLDADDVWKPHKLQRIVEVFQTSDVVGVMHHLDIIDGNDKTIDQASTQGPKLSEDLASVILQTGNAWCFPPTSGLAYRREVLEKVFPIDPVKWRIWADGCIIYCTAFLGKIKTLQENLAYYRIHGANNHMSAASATSEQEAKSQAGIEMTNQYINDFLVRIGYGARVDLSRNLQYRRTKYYQRSQWDLREVWGISRLILGWPFYSGQERAYYLARFLFKSGKFLLRSDVHTESTTI
  protein production: failed

## MFHKALWMRQWKQGKYIILLFWLTSLYQLPYKYYQEAQTQLKLSKMKFGDYTYYYSYYFQTSDGAVFFQGATLIALACLLIGWERNNQSNDFLFSMPFKRKDIFLTKWWLGVLNIITVQIICLISMYGIKNMSFHNEYQTFAPFYSYFLYATVVLIAIYTFALFIGTITGHIFSQSILTIILLFLPYGFGLLISGFIYSHTQWSVDAMGEIEYHTHEYLQHIGIISPLEYFSITYDYHPIETFDDYGNKLPSVSQDNPTERISVPSPWTLLTPFSYIITFLSIATFLYTRTPNEQSGKILLFPNLQKWFIICTVLCFGLLGGRILGGRDALLSYYVGFFLFATISYFIFTRLLKLKFAFAGK
  protein production: failed

## MLAVGIVGLPNVGKSTLFNALTRANALAANYPFATIDKNVGVVPLEDERLYALQRTFAKGERVPPVVPTHVEFVDIAGLVKGAHKGEGLGNQFLAHIREVAAIAHVLRCFPDPDVVHVMGRVDPLEDAEVVETELLLADLATLERRLERLRKEARADRERLPLLEAAEGLYVHLQEGKPARTFPPSEAVARFLKETPLLTAKPVIYVANVAEEDLPDGRGNPQVEAVRRKALEEGAEVVVVSARLEAELAELSGEEARELLAAYGLQESGLQRLARAGYRALDLLTFFTAGEKEVRAWTVRRGTKAPRAAGEIHSDMERGFIRAEVIPWDKLVEAGGWARAKERGWVRLEGKDYEVQDGDVIYVLFNA
  protein production: not failed

## MDGLHVSIVSVALFIILFVIFVFLGFYGSRWRRGDLSKLHEWALAGRRLGPYLMWFLLTADLYTAYTFIAVPSLVLASGPVGFFAAFYSAVTPFIALLFMPRLWTIAKNRGYVTAADFIKDRFNSRILAGLVAITGVVAELPYIALQIVGMQVALLILLLGLGVSNITLASDLSLLVAFIILAAFVFTSGLRGAALTAVYKDIIILGTIISIAIYVPLAFGGFSGAFHNAQTLSSQINLALNNVNKPIFYNYLPNTLAARTAYISLAIGSAFALYLYPHAVNASVSSDSKKSLKLSLALQPFYSIILAVIALFGILVYANSKVVNFIAKTHSGAVAVPALIGYSMPDWFVGIALLGIFIGGLVPAAIMAIGAANLLTRNIIKEFKPNMSPSTESALAKWISTAFKFLALALVFATPSTYAIQLQLLGGIIILQTLPSVFLGLYTSKLNGYALVGGWAGGMFSGIYLTLLANHFGPLKTSSFITPLGPMYIGVLSTLINLAIGLIGTAIAYGAGWRPVSNIRAEEIA
  protein production: failed

## MWEAIKDRETGRIRSNSFANRFKSRRILSLQLSNRKDFVSPHRGSVNSLQVDLTEGRYLLSGAADGSAAVFDVQRATDYEASGLIAKHKCIFTVDKQHENGHKYAISSAIWYPIDTGLFITGSFDHYLKVWDTNTAQAVVDFKMPGKVYRTAMSSMAMSHTLIAAGTEDVQVRLCDIASGAFSHTLSGHRDGVMSVEWSTSSEWVLYTGGCDGAIRFWDIRRAGCFRVLDQSQTQLGFRPPILKRTAVGSKLSSVAKSSLGGQNRLKTLQSKQTGSQSVKGSSSAKASVEKSRQKRIHPGMLSTLDRATAHYGAVTGLKATNDGMYLLSAGSDSRIRLWDIESGRNTLVNFETGRIQTNKGIQLDTSDDPALVFVPCMKTVKVAFGMWSGRTTLMLRGHYESVNTCCFNSNDQELYTSGSDRQILVWSPGGTVEDEMVQDEVAEDKDNWSD
  protein production: failed

## MGKTAIKSTAKVLSFVVQKHWATRLHYDFRLELEGTMKSWAVPKGPSFDPNDKRMAVHVEDHPISYNSFEGEIPSGQYGAGKVIIWDKGTWIPLEDPHKGYRDGKLKFELRGLKLKGHWALVRMRKEENKKQEPWLLIKEKDEYVRSSREYSVVDEMPDSVAELEHHHHHH
  protein production: not failed

## MKFIIEALKRVRERRPLVHNITNFVVMNTTANALLALGASPVMAHAEEELEEMIRLADAVVINIGTLDSGWRRSMVKATEIANELGKPIVLDPVGAGATKFRTRVSLEILSRGVDVLKGNFGEISALLGEEGKTRGVDSLEYGEEEAKKLTMNAAREFNTTVAVTGAVDYVSDGRRTFAVYNGHELLGRVTGTGCMVAALTGAFVAVTEPLKATTSALVTFGIAAEKAYEEAKYPGSFHVKLYDWLYRINENVIRTYAKVREVEL
  protein production: not failed

## MYKLISPHLSGHAMWKEALEEFGSGPIHGSGYFENYLPIDYSEAGFHHYLKERTDAADPSVPPPEGFVHCSYFWIVDDDDVLVGFLALRHELNQHLLEVAGHIGYGVRPSARRKGAATAALKLGVHEAQALGIDKVLLCVAGDNEASRNVIEKCGGVYESTIRGMRRYWIATDS
  protein production: failed

## MEGNQAGSSLDSLIASFNKRIGELQELVIARNMYPASTIPDLSAIDTALSSMELQVQSIKDRLREETEAIPKAKKLIEASLKQQGKLQKMSIYAPSHFPDKATMLNSDLNRCLLQENAKQYEQHSTLSSLKFDEEAAVLPKEKKGRGSPPLWYITVEELNSLSSYMRGRLTLEKVNAAINDMASYAEANAHLIAASKQKLAENLWEKALKLRDIVTEQAVKGKHFFLETDMKGPSLKLDNTGKAILTVLRHLGRISETRIGQNRVIILMKPH
  protein production: failed

## MKLSDFIKTEDFKKEKHVPVIEAPEKVKKDEKVQIVVTVGKEIPHPNTTEHHIRWIKVFFQPDGDPYVYEVGRYEFNAHGESVQGPNIGAVYTEPTVTTVVKLNRSGTIIALSYCNIHGLWESSQKITVEE
  protein production: not failed

## MTLATRSMQPHAVSPGQARSWPLPAAGWLLLAVGVWLAFLSWMRPLALPDEGRYAGVAWDMLRNGSFAVPLIDGMPYFHKPPLYYWLAELSFRLFGVNEWAVRLPSALAAWASAVALYLFVRRHRDAASATLCVLVLATLPLFFGGAQYANMDMLVAGMITLCVLAGADTALRVRGGQAWRAMALATGVCAALAMLAKGLIGLVLPGAILLAWLAWRRDWRGLRALLWPPAILAFAVVAVPWFWLMQVRYPGFFQYFFVHQHFERFAQTGFNNVQPFWFYLPVIAGLALPWSLWAGGLLRKQFWAADADPDGLRRLALVWLAVIVAFFSMPQSKLVGYIMPVLPPLAFLLAEVVMGALRDPAVARATRRMARVSALVAVAICVTAVFVASFNARGSSRELALSLRGELRPDDTLVALHTYPFDLQLYAHAARPMWVVDDWSNPEIPKRDNWRRELYDAVQFEPALGERLLVSADTFQQRLCQAPEGSRYWVWGTAADEEAYAPLRGQAARFADARRSLWLVLVDEAFKGRVCDGTPTGG
  protein production: failed

## MKINKIDTRHGTANQSTFSHGNCLPYTGFPWGMNYFSPSTGAARGAWWFHPEDRTFEGYRITHQPSPWMGDFSHLTMTPVAGPLPETSLWHTVSSYRPEESTFNPTQLKITQLRYQITSQLIPSMYGGILSMNYQNLSLKDNGLMLHLPGSYELQQLDDYSLELSIINFAGCEDENFTFYLKFTADQPFVLSGNLSDEDSSVRLDFKAAKQVQIHFATSFISKEQAALNLEREQDNSAETYLENAESAWNNLFSRIEIEHHNQQEVSTFYHNLYRSFLFPQTFYEFDQEHQKIHYDTSSKTVKKGPLYTNNGFWDTFRTVYPLYSLIAVDEYGDMLEGFLNSYRATGFLPKWLSPDERGLMPGTLIDAVIADAASKNIRPDLMPEFLEAMKKGATSQSENSNYGRRGTKDYLKLGYVPLTHHESVNHTLDYAFSDYCISQVAKQTGDKEISDFYAHQAKDYQNIFDSETGFMRAKDADGNFRADFLDIRWGRDYAEGSAWQTSWSVLHDFAGLIKLHGSRENFENKLIELCNQRPNFNVEGYGFEIHEMSEMAAIEFGQVAISNQPSFHYPYLFSYIGKPWMATPLIKNLLTETFNDSPKGYPGDEDNGTMAAWYIFSSLGFYPVTAASNQYVLGIPLWDKARINLSSGQQLTILAEPNAPQQVFVNQITFTDKKVNDTFIKHEELIKGGTLKFDLGIVPNPLKYTNEQLPYSLTEN
  protein production: failed
